Data from patent publication US20060241051A1 (Takeda / Millennium, published 2006).
Where two headings read alike, the source gives them in different places. Numbered stars: 1 amine (or outer) side, 2 acyl side, 3 side chain; on linkers, the order of the positions; unused ones are H or OH. Square brackets hold non-standard residues; d marks the D form. Ends that are not written are not given here. * marks the point of attachment. Ala(2-Qui) = 2-quinolylalanine, O=C([C@H](Cc1ccc2ccccc2n1)N[*:1])[*:2]; Tyr(Me) = O-methyltyrosine, COc1ccc(C[C@H](N[*:1])C(=O)[*:2])cc1; Propanoyl(3-indol-3-yl) = O=C(CCc1c[nH]c2ccccc12)*; Phe(F5) = N[C@@H](Cc1c(F)c(F)c(F)c(F)c1F)C(=O)O; Propanoyl(3-(3-pyridyl)) = O=C(CCc1cccnc1)*; Arg(Me) = CNC(=N)NCCC[C@H](N)C(=O)O; Fmoc = O=C(OCC1c2ccccc2-c2ccccc21)*; d4Pal = N[C@H](Cc1ccncc1)C(=O)O; Cha = N[C@@H](CC1CCCCC1)C(=O)O; azaGly = NNC(=O)O

Tests used:
[1] = target: T1, human OT7T175 (metastin receptor) (human, UniProt Q969F8 1-398); assay: cell-based or functional assay
[2] = target: T1, human OT7T175 (metastin receptor); assay: FMAT competition with Cy-5-labeled metastin (40-54), hOT7T175-expressed CHO cells
[3] = target: T1, human OT7T175 (metastin receptor); assay: cell-based or functional assay; remark: listed apart in the source
[4] = target: human OT7T175 (metastin receptor) (human) (UniProt Q969F8); assay: cell-based or functional assay
Sequence of human OT7T175 (metastin receptor) (human) (Q969F8 whole entry L364H): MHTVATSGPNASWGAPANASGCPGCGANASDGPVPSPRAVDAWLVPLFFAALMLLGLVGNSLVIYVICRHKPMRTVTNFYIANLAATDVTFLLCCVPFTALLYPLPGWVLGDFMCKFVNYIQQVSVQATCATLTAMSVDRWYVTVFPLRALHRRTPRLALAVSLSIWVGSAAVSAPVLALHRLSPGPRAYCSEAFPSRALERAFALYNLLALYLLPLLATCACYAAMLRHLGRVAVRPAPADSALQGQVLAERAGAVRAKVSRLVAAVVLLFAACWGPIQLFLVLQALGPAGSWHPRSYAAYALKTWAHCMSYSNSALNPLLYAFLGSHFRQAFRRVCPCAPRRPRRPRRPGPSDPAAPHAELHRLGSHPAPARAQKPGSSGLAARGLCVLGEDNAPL

T1 sequence (Q969F8 whole entry L364H): as above

| Binder | intracellular Ca ion level-increasing activity (FLIPR) [1] | IC50 [2] [nM] | intracellular Ca ion level-increasing activity (FLIPR) [3] | intracellular Ca ion level-increasing activity (FLIPR) (specific activity to metastin (1-54)) [4] |
| --- | --- | --- | --- | --- |
| YNWNSFGLRX (Cha10; C-terminal amide) [Compound No. 112: [Cha10]MS10] | 2 specific activity to metastin (1-54) | 370 | – | – |
| [dY][dW]NSFGL[Arg(Me)]F-NH2 (N-terminus assumed; SMILES CNC(=N)NCCC[C@H](NC(=O)[C@H](CC(C)C)NC(=O)CNC(=O)[C@H](Cc1ccccc1)NC(=O)[C@H](CO)NC(=O)[C@H](CC(N)=O)NC(=O)[C@@H](Cc1c[nH]c2ccccc12)NC(=O)[C@H](N)Cc1ccc(O)cc1)C(=O)N[C@@H](Cc1ccccc1)C(N)=O) [Compound No. 224: des(1)-[D-Tyr2,D-Trp3,Arg(Me)9]MS10] | – | 140 | 2 specific activity to metastin (1-54) | – |
| {2‑aminoethyl}-G[dY]NWNSFGL[Arg(Me)]F-NH2 (not fully specified (residue 1); printed as 2-Aminoethyl-Gly-[D-Tyr1,Arg(Me)9]MS10) [Compound No. 375: 2-Aminoethyl-Gly-[D-Tyr1,Arg(Me)9]MS10] | – | – | – | 2 |
| [dY][d4Pal]NSF[azaGly]L[Arg(Me)]W-NH2 (N-terminus assumed; SMILES CNC(=N)NCCC[C@H](NC(=O)[C@H](CC(C)C)NC(=O)NNC(=O)[C@H](Cc1ccccc1)NC(=O)[C@H](CO)NC(=O)[C@H](CC(N)=O)NC(=O)[C@@H](Cc1ccncc1)NC(=O)[C@H](N)Cc1ccc(O)cc1)C(=O)N[C@@H](Cc1c[nH]c2ccccc12)C(N)=O) [Compound No. 385: des(1)-[D-Tyr2,D-Pya(4) 3,AzaGly7,Arg(Me)9,Trp10]MS10] | – | – | – | 10 |
| YNWNSFGARF-NH2 [Compound No. 45: [Ala8]MS10] | – | – | – | 1 |
| SNWNSFGLRF-NH2 [Compound No. 74: [Ser1]MS10] | – | – | – | 1 |
| YNWNSFGLR[Phe(F5)]-NH2 [Compound No. 111: [Phe(F5)10]MS10] | 3 specific activity to metastin (1-54) | 140 | – | – |
| YNWNSFGLR[Tyr(Me)]-NH2 [Compound No. 18: [Tyr(Me)10]MS10] | 1 specific activity to metastin (1-54) | 7.7 | – | – |
| YNWNSFGLRY-NH2 [Compound No. 109: [Tyr10]MS10] | 20 specific activity to metastin (1-54) | 23 | – | – |
| DNWNSFGLRF-NH2 [Compound No. 75: [Asp1]MS10] | 1 specific activity to metastin (1-54) | 880 | – | – |
| YNWNSFALRF-NH2 [Compound No. 50: [Ala7]MS10] | 30 specific activity to metastin (1-54) | 190 | – | – |
| YNWNSFSLRF-NH2 [Compound No. 101: [Ser7]MS10] | 10 specific activity to metastin (1-54) | 100 | – | – |
| YNWNLFGLRF-NH2 [Compound No. 24: [Leu5]MS10] | 1 specific activity to metastin (1-54) | 0.83 | – | – |
| YNWNSFGLXF (Har9; C-terminal amide) [Compound No. 97: [Har9]MS10] | 10 specific activity to metastin (1-54) | 370 | – | – |
| [dY]NWNSF[azaGly]LR(Me)F-NH2 [Compound No. 232: [D-Tyr1,AzaGly7,Arg(Me)9]MS10] | – | 49 | 3 specific activity to metastin (1-54) | – |
| YNWNSFGLR[Ala(2-Qui)]-NH2 (N-terminus assumed; SMILES CC(C)C[C@H](NC(=O)CNC(=O)[C@H](Cc1ccccc1)NC(=O)[C@H](CO)NC(=O)[C@H](CC(N)=O)NC(=O)[C@H](Cc1c[nH]c2ccccc12)NC(=O)[C@H](CC(N)=O)NC(=O)[C@@H](N)Cc1ccc(O)cc1)C(=O)N[C@@H](CCCNC(=N)N)C(=O)N[C@@H](Cc1ccc2ccccc2n1)C(N)=O) [Compound No. 201: [Ala(2-Qui)10]MS10] | – | 820 | 1 specific activity to metastin (1-54) | – |
| [dN][Cha]NSF[azaGly]L[Arg(Me)]F-NH2 (N-terminus assumed; SMILES CNC(=N)NCCC[C@H](NC(=O)[C@H](CC(C)C)NC(=O)NNC(=O)[C@H](Cc1ccccc1)NC(=O)[C@H](CO)NC(=O)[C@H](CC(N)=O)NC(=O)[C@H](CC1CCCCC1)NC(=O)[C@H](N)CC(N)=O)C(=O)N[C@@H](Cc1ccccc1)C(N)=O) [Compound No. 315: des(1)-[D-Asn2,Cha3,AzaGly7,Arg(Me)9]MS10] | – | – | – | 1 |
| XYNWNSFGLRF (N-terminal Dap added before position 1; D-Tyr1; Arg(Me)9 (MS10 numbering); C-terminal amide) [Compound No. 387: Dap-[D-Tyr1,Arg(Me)9]MS10] | – | – | – | 1 |
| YNWNSFGLRX (Hph10; C-terminal amide) [Compound No. 79: [Hph10]MS10] | – | – | – | 1 |

| Binder | intracellular Ca ion level-increasing activity (FLIPR) [1] | IC50 [2] [nM] | intracellular Ca ion level-increasing activity (FLIPR) [3] | intracellular Ca ion level-increasing activity (FLIPR) (specific activity to metastin (1-54)) [4] |
| --- | --- | --- | --- | --- |
| {Propanoyl(3-(3-pyridyl))}-NSF[azaGly]L[Arg(Me)]W-NH2 (SMILES CNC(=N)NCCC[C@H](NC(=O)[C@H](CC(C)C)NC(=O)NNC(=O)[C@H](Cc1ccccc1)NC(=O)[C@H](CO)NC(=O)[C@H](CC(N)=O)NC(=O)CCc1cccnc1)C(=O)N[C@@H](Cc1c[nH]c2ccccc12)C(N)=O) [Compound No. 386: des(1-3)-3-Pyridylpropionyl-[AzaGly7,Arg(Me)9,Trp10]MS10] | – | – | – | 7 |
| YNWNSXGLRF (D-Tyr1; Cha6; Arg(Me)9; C-terminal amide, printed structure is the same as that of Compound No. 172) [Compound No. 203: [D-Tyr1,Cha6,Arg(Me)9]MS10] | – | 37 | 10 specific activity to metastin (1-54) | – |
| Fmoc-NWNSFGLRF-NH2 [Compound No. 55: des(1)-Fmoc-MS10] | 5 specific activity to metastin (1-54) | – | – | – |
| YNWNSFGLRX (Nal(2)10; C-terminal amide) [Compound No. 110: [Nal(2)10]MS10] | 20 specific activity to metastin (1-54) | 24 | – | – |
| YNWNSFGLRX (Pya(4)10; C-terminal amide) [Compound No. 17: [Pya(4)10]MS10] | 5 specific activity to metastin (1-54) | 0.0066 | – | – |
| YNWNSFGXRF (Nle8; C-terminal amide) [Compound No. 105: [Nle8]MS10] | 1 specific activity to metastin (1-54) | 880 | – | – |
| YKWNSFGLRF-NH2 [Compound No. 56: [Lys2]MS10] | – | – | – | 1 |
| Fmoc-NSFGLRF-NH2 [Compound No. 53: des(1-3)-Fmoc-MS10] | 1 specific activity to metastin (1-54) | – | – | – |
| GYNWNSFGLRF (N-terminal Methylthiocarbamoyl-Sar added before position 1; D-Tyr1; Arg(Me)9 (MS10 numbering); C-terminal amide) [Compound No. 397: Methylthiocarbamoyl-Sar-[D-Tyr1,Arg(Me)9]MS10] | – | – | – | 5 |
| KNWNSFGLRF-NH2 [Compound No. 76: [Lys1]MS10] | – | – | – | 1 |
| YN[dW]NSFGLRF-NH2 [Compound No. 40: [D-Trp3]MS10] | 30 specific activity to metastin (1-54) | – | – | – |
| [dY]NWNSFGLRF-NH2 [Compound No. 42: [D-Tyr1]MS10] | 30 specific activity to metastin (1-54) | – | – | – |
| [dY]WNSF[azaGly]L[Arg(Me)]F-NH2 [Compound No. 222: des(1)-[D-Tyr2,AzaGly7,Arg(Me)9]MS10] | – | 33 | 5 specific activity to metastin (1-54) | – |
| [dY][dN]WNSF[azaGly]LR(Me)F-NH2 [Compound No. 237: [D-Tyr1,D-Asn2,AZaGly7,Arg(Me)9]MS10] | – | 27 | 3 specific activity to metastin (1-54) | – |
| Compound No. 1: Metastin (peptide) peptide: GTSLSPPPESSGSRQQPGLSAPHSRQIPAPQGAVLVQREKDLPNYNWNSFGLRF | 1 specific activity to metastin (1-54) | – | – | – |
| {Propanoyl(3-indol-3-yl)}-NSFGLRF-NH2 (SMILES CC(C)C[C@H](NC(=O)CNC(=O)[C@H](Cc1ccccc1)NC(=O)[C@H](CO)NC(=O)[C@H](CC(N)=O)NC(=O)CCc1c[nH]c2ccccc12)C(=O)N[C@@H](CCCNC(=N)N)C(=O)N[C@@H](Cc1ccccc1)C(N)=O) [Compound No. 114: des(1-3)-3-(3-Indolyl)propionyl-MS10] | 3 specific activity to metastin (1-54) | 550 | – | – |
| Fmoc-WNSFGLRF-NH2 (SMILES CC(C)C[C@H](NC(=O)CNC(=O)[C@H](Cc1ccccc1)NC(=O)[C@H](CO)NC(=O)[C@H](CC(N)=O)NC(=O)[C@H](Cc1c[nH]c2ccccc12)NC(=O)OCC1c2ccccc2-c2ccccc21)C(=O)N[C@@H](CCCNC(=N)N)C(=O)N[C@@H](Cc1ccccc1)C(N)=O) [Compound No. 54: des(1-2)-Fmoc-MS10] | 5 specific activity to metastin (1-54) | 450 | – | – |
| LPNYNWNSFGLRF-NH2 [Compound No. 32: Leu-Pro-Asn-MS10] | 10 specific activity to metastin (1-54) | 25 | – | – |
| Ac-ANSF[azaGly]L[Arg(Me)]F-NH2 (SMILES CNC(=N)NCCC[C@H](NC(=O)[C@H](CC(C)C)NC(=O)NNC(=O)[C@H](Cc1ccccc1)NC(=O)[C@H](CO)NC(=O)[C@H](CC(N)=O)NC(=O)[C@H](C)NC(C)=O)C(=O)N[C@@H](Cc1ccccc1)C(N)=O) [Compound No. 274: des(1-2)-Acetyl-[Ala3,AzaGly7,Arg(Me)9]MS10] | – | – | – | 1 |
